In patent US20080292619A1, “Pharmaceutical Composition Containing Meltrin Antagonist” (MOCHIDA PHARMACEUTICAL CO., LTD., priority 2004, published 2008):

Target: T1, meltrin α (Homo sapiens, UniProt O43184, E208G/T209S)
T1 construct: had been converted to mature meltrin α having the prodomain deleted (molecular weight 68 kDa); made in house; host or cells: COS-1
T1 sequence (O43184 208-738 isoform O43184-2 E208G/T209S): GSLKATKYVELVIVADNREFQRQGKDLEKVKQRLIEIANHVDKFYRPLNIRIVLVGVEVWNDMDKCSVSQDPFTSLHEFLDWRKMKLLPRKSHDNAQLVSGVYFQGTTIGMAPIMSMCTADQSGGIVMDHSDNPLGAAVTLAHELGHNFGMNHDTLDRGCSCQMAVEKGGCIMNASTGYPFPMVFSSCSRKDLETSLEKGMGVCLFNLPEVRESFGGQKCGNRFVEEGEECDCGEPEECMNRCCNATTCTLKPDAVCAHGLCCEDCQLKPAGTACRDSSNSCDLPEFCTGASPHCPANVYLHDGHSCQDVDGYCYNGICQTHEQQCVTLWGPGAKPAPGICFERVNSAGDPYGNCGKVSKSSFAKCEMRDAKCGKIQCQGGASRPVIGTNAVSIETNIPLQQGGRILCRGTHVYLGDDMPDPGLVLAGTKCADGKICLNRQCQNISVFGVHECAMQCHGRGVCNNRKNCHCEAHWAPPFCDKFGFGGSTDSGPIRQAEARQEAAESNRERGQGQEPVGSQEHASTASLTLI
Assay: Inhibition of protease activity of meltrin α (rhIGF-BP3 cleavage, western blotting)
Format: biochemical
Conditions: antibody 300 μg/mL; rhIGF-BP3 band
Description: Thrombin (Amersham Biosciences) was added to the purified meltrin α-STFLAG prepared in Example 5, and mixture was kept at 25° C. for 15 hours. When the solution after the reaction was examined by repeating the procedure of Example 5, the human meltrin α containing the prodomain (molecular weight 92 kDa) had been converted to mature meltrin α having the prodomain deleted (molecular weight 68 kDa). For measuring the enzymatic activity of the meltrin α, the solution after the prodomain cleavage with thrombin followed by inactivation of the thrombin by 10 mM APMSF (Wako Pure Chemical Industries, Ltd.) was used. The disappearance of the thrombin activity was confirmed by using the synthetic substrate for the thrombin on the reaction solution. […]
The anti-human meltrin α antibodies produced in Examples 6 and 7 were evaluated on their activity for inhibiting protease activity of meltrin α by using the protease activity assay system of Example 9. […] After the reaction, the reaction solution was electrophoresed by SDS-PAGE, and the rhIGF-BP3 was detected by western blotting.
According to the method of Example 9, activity of the low molecular weight compound for inhibiting protease activity of the meltrin α was assayed as described below. […] After the reaction, the reaction solution was electrophoresed by SDS-PAGE, and the rhIGF-BP3 was detected by western blotting.

B1: F1196-113-1: anti-meltrin α monoclonal antibody clone (antibody, V domains shown)
VH: EVKLLESGGGLVQPGGSLKLSCAASGFDFSRYWMSWVRQAPGKGLEWIGEINPDSSTINYTPSLKDKFIISRDNAKNTLYLHMSKVRSEDTALYYCARPDSYYRYYAMDYWGQGTSVTVSSAKTTA
VL: DIQMTQTTSSLSASLGDRVTISCRASQDISNYLNWYQQKPDGTVKLLIYYTSRLHSGVPSRFSGSGSGTDYSLTISNQEQEDIATYFCQQGNTLPYTFGGGTKLEIKR
Which “activity for inhibiting protease activity of meltrin α” value does the source give for B1 here?
The value was “inhibitory activity for the meltrin α protease activity has been confirmed”.
